The target in test [1] is Cephalosporium lectin (Cephalosporium (isolated from the corneal smears of a keratitis patient)). The test can be described thus: SEC; gel filtration on a Superdex G-75 column in PBS, calibrated with standard proteins; 57 kDa compared with the 14 kDa subunit mass by SDS-PAGE. (SEC sorts molecules by how far they enter the pores of the column.)
For test [2] the target is unchanged.

This passage reports stoichiometry N and minimum concentration required to inhibit hemagglutination of trypsinized human erythrocytes by CSL (hapten inhibition, MIC) results from publication PMC3008968.

Usually stoichiometry N stands for a count of units in the complex or per binding partner.

With Cephalosporium lectin (natural protein), in test [1], the stoichiometry N turned out to be 4. In test [2], “Mucin (porcine stomach, type III) (natural protein)” had a minimum concentration required to inhibit hemagglutination of trypsinized human erythrocytes by CSL (hapten inhibition, MIC) of 0.785 μg/50 μl.

B1: fetuin (fetal calf serum) (natural protein)
chain: IPLDPVAGYKEPACDDPDTEQAALAAVDYINKHLPRGYKHTLNQIDSVKVWPRRPTGEVYDIEIDTLETTCHVLDPTPLANCSVRQQTQHAVEGDCDIHVLKQDGQFSVLFTKCDSSPDSAEDVRKLCPDCPLLAPLNDSRVVHAVEVALATFNAESNGSYLQLVEISRAQFVPLPVSVSVEFAVAATDCIAKEVVDPTKCNLLAEKQYGFCKGSVIQKALGGEDVRVTCTLFQTQPVIPQPQPDGAEAEAPSAVPDAAGPTPSAAGPPVASVVVGPSVVAVPLPLHRAHYDLRHTFSGVASVESSSGEAFHVGKTPIVGQPSIPGGPVRLCPGRIRYFKI
Take B1: the minimum concentration required to inhibit hemagglutination of trypsinized human erythrocytes by CSL (hapten inhibition, MIC) in test [2] came to 6.25 μg/50 μl.

B2: Asialofetuin (natural protein)
chain: IPLDPVAGYKEPACDDPDTEQAALAAVDYINKHLPRGYKHTLNQIDSVKVWPRRPTGEVYDIEIDTLETTCHVLDPTPLANCSVRQQTQHAVEGDCDIHVLKQDGQFSVLFTKCDSSPDSAEDVRKLCPDCPLLAPLNDSRVVHAVEVALATFNAESNGSYLQLVEISRAQFVPLPVSVSVEFAVAATDCIAKEVVDPTKCNLLAEKQYGFCKGSVIQKALGGEDVRVTCTLFQTQPVIPQPQPDGAEAEAPSAVPDAAGPTPSAAGPPVASVVVGPSVVAVPLPLHRAHYDLRHTFSGVASVESSSGEAFHVGKTPIVGQPSIPGGPVRLCPGRIRYFKI
modifications: asialo form (asialofetuin)
Take B2: in test [2], the minimum concentration required to inhibit hemagglutination of trypsinized human erythrocytes by CSL (hapten inhibition, MIC) is 12.5 μg/50 μl.
